Non-standard residues stand in square brackets, D forms with d. No end group written: not given here. SeMet = C[Se]CC[C@H](N)C(=O)O
Experiments:
full-length human SNX3 = full-length human SNX3 (human, UniProt O60493-1 1-162); assay: crystal structure
[1] = molecular target: VPS26A residues 1–317, the VPS26 part of the fusion VPS26(1–317)-DMT1(545–568) (human, UniProt O75436-1 1-317); assay: crystal structure

binding result (full-length human SNX3)	binding result [1]	Binder
binds		{VPS26(1–321)}-TAQPELYLLNT[SeMet] (peptide, UniProt P49281 549-560, looked up) [DMT1-II recycling signal residues 549–560, the DMT1 part of the fusion VPS26(1–321)-DMT1(549–560)]
binds		{VPS26(1–321)}-TAQPELYL[SeMet]NT[SeMet] (peptide, UniProt P49281 549-560, looked up)
	binds	{VPS26(1–317)}-HLGLTAQPELYLLNTMDADSLVSR (peptide, UniProt P49281 545-568, looked up) [DMT1-II recycling signal residues 545–568, the DMT1 part of the fusion VPS26(1–317)-DMT1(545–568)]

From publication PMC5147500 (Cell, 2016)
